Biological target: purified B/Washington/02/2019 HA full ectodomain (wild type) fused with TEV cleavage motif, trimeris (influenza B virus B/Washington/02/2019 (B/Victoria)) (UniProt P22092)
Assay: BLI (Octet Red), […], Fab CR9114 at 20 ug/ml; […]

Substance fAb CR9114 has an OCTET CR9114 30° C. response of 0.48 nm and an OCTET Fab CR9114 response of 0.38 nm.

From patent publication US20250281595A1
